# Reference: patent US8629241B2, “Alpha helical mimics, their uses and methods for their production” (The University of Queensland, priority 2004, dated 2014)
# Read-outs that look alike come from different tables or passages of the source. Where a SMILES comes first, the peptide text is derived from it. Bridges are numbered along the chain shown (N, C = ends). Where no end group is shown, it is not given here. [ ]: non-standard residue; d: D form. NPhGly = O=C(O)CNc1ccccc1
# Tests used:
# [1] = type: physicochemical; settings: for θ222/θ208 / [θ]192 / [θ]208 / [θ]222: Table 8; for [θ]192 / [θ]208 / [θ]222: one or more cyclic pentapeptide modules versus linear peptides; for % helicity: fH × 100, [θ∞H]222 = −44000, k = 2.6; for [θ]207: molar elipticity at 207 nm; for helicity by CD compared to native agonist and antagonist sequences: versus F/Nphe-[…], FIG. 12
# Experimental: Circular Dichroism (CD) was performed on peptides having SEQ ID NOs: 8 to 14 and 18 to 31, using methods described above. The molar elipticities at 222 nm, 208 nm and 190 nm, ratios of elipticities at 222 nm/208 nm and relative helicity are shown in Tables 6 and 7.
# Assuming that mean alpha helix content (fH) is linearly related to elipticity at 222 nm, or in our case 215 nm ([θ]obs215), then the equation for calculating helix content is: fH=([θ]obs215−[θ]C)/([θ]∞215−[θ]C) (1) Luo and Baldwin^22 determined that the random coil ([θ]C) and infinite alpha helix ([θ]∞222) molar elipticities are temperature dependent based on the equations: [θ]C=2220−53T (2a) [θ]∞215=(−44000+250T)(1−k/Np) (2b) where T is temperature in degrees Celsius, Np is the number of peptide units, and k is a finite length correction.
# CD was performed on peptides having one [SEQ ID NO: 8] or more than one modular macrocycle [SEQ ID NOs: 46 and 47], as compared with corresponding linear peptides, Ac[KARAD]n—NH2 where n=1 [SEQ ID NO: 14], n=2 [SEQ ID NO: 54] and n=3 [SEQ ID NO: 55]. The molar elipticities at 222 nm, 208 nm and 190 nm, ratios of elipticities at 222 nm/208 nm and percentage helicity are shown in Table 8.
# CD experiments were performed on a Jasco Model J-710 spectropolarimeter which was routinely calibrated with (1S)-(+)-10-camphorsulfonic acid. Temperature control was achieved using a Neslab RTE-111 circulating water bath. Spectra were recorded in a 0.1 cm Jasco cell between 310-185 nm at 50 nm/min with a band width of 1.0 nm, response time of 2 sec, resolution step width of 0.1 nm and sensitivity of 20, 50 or 100 mdeg. Each spectrum represents the average of 5 scans with smoothing to reduce noise. Peptide samples for CD spectroscopy were dissolved in distilled water (˜1 mg/mL). Each stock solution was diluted to a final concentration of 50 μM in 10 mM sodium phosphate buffer (pH7.4), with or without additives (2,2,2-trifluoroethanol (TFE) or guanidine.HCl). Guanidine.HCl denaturation experiments were performed according to Creighton^105.
# 1D ^1H NMR spectra were then recorded with presaturation and a relaxation delay (d1) of 30 seconds to allow for full relaxation of peptide and DSS^1H signals to facilitate accurate integration of proton signals with S/N>250:1. This method provides reproducible concentrations within ±2%.
# CD data in ellipticity was converted to mean peptide ellipticity using the equation: [θ]=θ/(10×C×Np×1) where θ is the ellipticity in millidegrees, C is the peptide molar concentration (M), 1 is the cell path length (cm), and Np is the number of peptide units (ie. pentapeptides […], 10 & 11 Np=5, 12 Np=4.)
# Relative helicities were employed to allow scaling of compounds by dividing the [θ]obs215(8)/[θ]obs215(x) for pentapeptides, and [θ]obs215(24)/[θ]obs215(x) for hexapeptides.
# trypsin = assay: Proteolytic stability of the helix, trypsin digestion (Example 10); type: in vitro ADME; settings: pH 8.2, room temperature, 1 to 155 minutes
# Experimental: A standard solution of Ac—KARAD-NH2 and Ac—(cyclo-1,5)-KARAD-NH2 (1 mg/mL) was prepared in 100 mM ammonium carbonate buffer at pH˜8.2. To 100 μL of each solution was added 1 mg/mL of trypsin (1 μL). The digest was conducted at room temperature with 5 μL aliquots taken at 1, 4, 8, 28, 48, 55, 110, 155 minutes. Aliquots were diluted with 5 μL of 3% TFA to stop the reaction. and analyzed by LC-MS using 2.1×150 mm Phenomenex 300 Å C18 5 μm column, with a 3% per minute linear gradient of 0-60% acetonitrile over 20 minutes. The amount of starting material left in each sample was quantified by determination of total ion counts for the molecular ion.
# Compound of SEQ ID NO 8 and its acyclic version SEQ ID NO: 14 were incubated with trypsin (pH 8.2), aliquots removed at intervals between 1 and 155 minutes, and analyzed by LCMS. […] Similarly the cyclic compound 8 was not degraded by human serum (1 h, 37° C.). […] This is consistent with other observations that only an extended or linear peptide conformation is recognized, not only by trypsin, but by all proteolytic enzymes^125 Presumably the cycle is too tightly locked into an alpha helical turn to permit significant unwinding to the extended format needed for recognition by trypsin.
# [2] = [θ]215 relative to SEQ ID NO: 8, 10 mM phosphate buffer, pH 7.4, 25° C
# [3] = molar elipticity at 190 nm, 10 mM phosphate buffer, pH 7.4, 25° C
# [4] = 10 mM phosphate buffer, pH 7.4, 25° C
# [5] = molar elipticity at 215 nm, 10 mM phosphate buffer, pH 7.4, 25° C
# [6] = ratio of elipticities, 10 mM phosphate buffer, pH 7.4, 25° C
# [7] = cyclic hexapeptides 23-31, 10 mM phosphate buffer pH 7.4 at 25° C
# [8] = θ215 relative to SEQ ID NO: 24, 10 mM phosphate buffer pH 7.4 at 25° C
compound,measurement,setting,value
"CC(=O)N[C@@H](CCCCN)C(=O)N[C@@H](C)C(=O)N[C@@H](CCCNC(=N)N)C(=O)N[C@@H](C)C(=O)N[C@@H](CC(=O)O)C(N)=O [SEQ ID NO: 14, Ac-[KARAD]-NH2] (Ac-KARAD-NH2)",θ222/θ208,[1],0.12
same,[θ]192,[1],−14779 degcm^2dmol^−1residue^−1
same,[θ]208,[1],−5758 degcm^2dmol^−1residue^−1
same,[θ]222,[1],−732 degcm^2dmol^−1residue^−1
same,Relative helicity,[1]; [2],0.04
same,% helicity,[1],0.8%
same,[θ]190,[1]; [3],−7372 deg.cm^2.dmol^−1.residue^−1
same,[θ]207,[1]; [4],−5555 deg.cm^2.dmol^−1.residue^−1
same,[θ]215,[1]; [5],−524 deg.cm^2.dmol^−1.residue^−1
same,θ215/θ207,[1]; [6],0.09
same,"stability to trypsin (starting material left, LCMS)",trypsin,completely hydrolyzed within a few minutes
"Ac-(cyclo-2,6)-R[KAQAD]-NH2 (Ac-RKAQAD-NH2; lactam 2-6; SMILES CC(=O)N[C@@H](CCCNC(=N)N)C(=O)N[C@H]1CCCCNC(=O)C[C@@H](C(N)=O)NC(=O)[C@H](C)NC(=O)[C@H](CCC(N)=O)NC(=O)[C@H](C)NC1=O) [SEQ ID NO: 26]",Molar ellipticity at 207 nm,[1]; [7],−12279 deg.cm^2.dmol^−1.residue^−1
same,[θ]190,[1]; [7],36865 deg.cm^2.dmol^−1.residue^−1
same,[θ]215,[1]; [7],−11394 deg.cm^2.dmol^−1.residue^−1
same,θ215/θ207,[1]; [7],0.93
same,percentage helicities,"[1]; equation 2b with k˜4, assuming 8 has 100% helicity",70%
same,Relative helicity,[1]; [8],0.84
"Ac-(cyclo-2,6)-R[KGGGD]-NH2 (Ac-RKGGGD-NH2; lactam 2-6; SMILES CC(=O)N[C@@H](CCCNC(=N)N)C(=O)N[C@H]1CCCCNC(=O)C[C@@H](C(N)=O)NC(=O)CNC(=O)CNC(=O)CNC1=O) [SEQ ID NO: 31]",Molar ellipticity at 207 nm,[1]; [7],−4868 deg.cm^2.dmol^−1.residue^−1
same,[θ]190,[1]; [7],−1593 deg.cm^2.dmol^−1.residue^−1
same,[θ]215,[1]; [7],−2131 deg.cm^2.dmol^−1.residue^−1
same,θ215/θ207,[1]; [7],0.44
same,Relative helicity,[1]; [8],0.14
"Ac-(cyclo-2,6)-R[KGSAD]-NH2 (Ac-RKGSAD-NH2; lactam 2-6; SMILES CC(=O)N[C@@H](CCCNC(=N)N)C(=O)N[C@H]1CCCCNC(=O)C[C@@H](C(N)=O)NC(=O)[C@H](C)NC(=O)[C@H](CO)NC(=O)CNC1=O) [SEQ ID NO: 29]",Molar ellipticity at 207 nm,[1]; [7],−6975 deg.cm^2.dmol^−1.residue^−1
same,[θ]190,[1]; [7],12831 deg.cm^2.dmol^−1.residue^−1
same,[θ]215,[1]; [7],−4810 deg.cm^2.dmol^−1.residue^−1
same,θ215/θ207,[1]; [7],0.69
same,Relative helicity,[1]; [8],0.32
"Ac-(cyclo-2,6)-R[KSSSD]-NH2 (Ac-RKSSSD-NH2; lactam 2-6; SMILES CC(=O)N[C@@H](CCCNC(=N)N)C(=O)N[C@H]1CCCCNC(=O)C[C@@H](C(N)=O)NC(=O)[C@H](CO)NC(=O)[C@H](CO)NC(=O)[C@H](CO)NC1=O) [SEQ ID NO: 30]",Molar ellipticity at 207 nm,[1]; [7],−8017 deg.cm^2.dmol^−1.residue^−1
same,[θ]190,[1]; [7],6827 deg.cm^2.dmol^−1.residue^−1
same,[θ]215,[1]; [7],−4432 deg.cm^2.dmol^−1.residue^−1
same,θ215/θ207,[1]; [7],0.55
same,Relative helicity,[1]; [8],0.30
"Cyclo(6-10, 11-15)-FGGFT[KARKD][KRKLD]-NH2 (FGGFTKARKDKRKLD; bicyclic lactam bridges, C-terminal amide) [SEQ ID NO: 76]",helicity by CD compared to native agonist and antagonist sequences,[1],increase helicity
"Cyclo(6-10, 11-15)-NpheGGFT[KARKD][KRKLD]-NH2 ([NPhGly]GGFTKARKDKRKLD-NH2; lactam 6-10, 11-15; N-terminus assumed; SMILES CC(C)C[C@@H]1NC(=O)[C@H](CCCCN)NC(=O)[C@H](CCCNC(=N)N)NC(=O)[C@@H](NC(=O)[C@@H]2CC(=O)NCCCC[C@H](NC(=O)[C@@H](NC(=O)[C@H](Cc3ccccc3)NC(=O)CNC(=O)CNC(=O)CNc3ccccc3)[C@@H](C)O)C(=O)N[C@@H](C)C(=O)N[C@@H](CCCNC(=N)N)C(=O)N[C@@H](CCCCN)C(=O)N2)CCCCNC(=O)C[C@@H](C(N)=O)NC1=O) [SEQ ID NO: 77]",helicity by CD compared to native agonist and antagonist sequences,[1],increase helicity
"H-(cyclo-1,5)-[KARAD]-NH2 (H-KARAD-NH2; lactam 1-5; SMILES C[C@@H]1NC(=O)[C@H](CCCNC(=N)N)NC(=O)[C@H](C)NC(=O)[C@@H](N)CCCCNC(=O)C[C@@H](C(N)=O)NC1=O) [SEQ ID NO: 21]",Relative helicity,[1]; [2],0.06
same,Relative helicity,"[1]; [θ]215 relative to SEQ ID NO: 8, in 0.001 M NaOH pH 10",0.2
same,[θ]190,[1]; [3],1355 deg.cm^2.dmol^−1.residue^−1
same,[θ]190,"[1]; molar elipticity at 190 nm, in 0.001 M NaOH pH 10",8452 deg.cm^2.dmol^−1.residue^−1
same,[θ]207,[1]; [4],−2228 deg.cm^2.dmol^−1.residue^−1
same,[θ]207,[1]; in 0.001 M NaOH pH 10,−3327 deg.cm^2.dmol^−1.residue^−1
same,[θ]215,[1]; [5],−812 deg.cm^2.dmol^−1.residue^−1
same,[θ]215,"[1]; molar elipticity at 215 nm, in 0.001 M NaOH pH 10",−2590 deg.cm^2.dmol^−1.residue^−1
same,θ215/θ207,[1]; [6],0.36
same,θ215/θ207,"[1]; ratio of elipticities, in 0.001 M NaOH pH 10",0.78
"H-(cyclo-1,5)-[KARAD]-OH (H-KARAD-OH; lactam 1-5; SMILES C[C@@H]1NC(=O)[C@H](CCCNC(=N)N)NC(=O)[C@H](C)NC(=O)[C@@H](N)CCCCNC(=O)C[C@@H](C(=O)O)NC1=O) [SEQ ID NO: 22]",Relative helicity,[1]; [2],0.08
same,[θ]190,[1]; [3],−4966 deg.cm^2.dmol^−1.residue^−1
same,[θ]207,[1]; [4],−5737 deg.cm^2.dmol^−1.residue^−1
same,[θ]215,[1]; [5],−1033 deg.cm^2.dmol^−1.residue^−1
same,θ215/θ207,[1]; [6],0.18
SEQ ID NO: 55: linear peptide Ac(KARAD)n-NH2 where n=3 (Ac-KARADKARADKARAD-NH2),θ222/θ208,[1],0.39
same,[θ]192,[1],−8024 degcm^2dmol^−1residue^−1
same,[θ]208,[1],−9788 degcm^2dmol^−1residue^−1
same,[θ]222,[1],−3852 degcm^2dmol^−1residue^−1
same,% helicity,[1],7%
"cyclo(1-5, 6-10, 11-15)-Ac-[KARADKARADKARAD]-NH2 (Ac-KARADKARADKARAD-NH2; lactam 1-5, 6-10, 11-15; SMILES CC(=O)N[C@H]1CCCCNC(=O)C[C@@H](C(=O)N[C@H]2CCCCNC(=O)C[C@@H](C(=O)N[C@H]3CCCCNC(=O)C[C@@H](C(N)=O)NC(=O)[C@H](C)NC(=O)[C@H](CCCNC(=N)N)NC(=O)[C@H](C)NC3=O)NC(=O)[C@H](C)NC(=O)[C@H](CCCNC(=N)N)NC(=O)[C@H](C)NC2=O)NC(=O)[C@H](C)NC(=O)[C@H](CCCNC(=N)N)NC(=O)[C@H](C)NC1=O) [SEQ ID NO: 47]",θ222/θ208,[1],1.34
same,[θ]192,[1],100811 degcm^2dmol^−1residue^−1
same,[θ]208,[1],−23842 degcm^2dmol^−1residue^−1
same,[θ]222,[1],−31987 degcm^2dmol^−1residue^−1
same,% helicity,[1],88%
